Measurements reported in PMC4046112, “eIF2B is a decameric guanine nucleotide exchange factor with a γ2ε2 tetrameric core” (Nature Communications, 2014).

B2: eIF2Bγ, FLAG-tagged (γ-subunit of yeast eIF2B) (natural protein, S. cerevisiae, UniProt P09032 1-578, looked up)
chain: MSIQAFVFCGKGSNLAPFTQPDFPFQTQNKDSTAATSGDKLNELVNSALDSTVINEFMQHSTRLPKALLPIGNRPMIEYVLDWCDQADFKEISVVAPVDEIELIESGLTSFLSLRKQQFELIYKALSNSNHSHHLQDPKKINFIPSKANSTGESLQKELLPRINGDFVILPCDFVTDIPPQVLVDQFRNRDDNNLAMTIYYKNSLDSSIDKKQQQKQKQQQFFTVYSENEDSERQPILLDVYSQRDVTKTKYLQIRSHLLWNYPNLTVSTKLLNSFIYFCSFELCQLLKLGPQSMSRQASFKDPFTGNQQQQNPPTTDDDEDRNHDDDDDYKPSATSIQPTYFKKKNDLILDPINCNKSLSKVFRDLSRRSWQHSKPREPIGIFILPNETLFIRANNLNAYMDANRFVLKIKSQTMFTKNIQIQSAAIGADAIVDPKCQISAHSNVKMSVLGTQANIGSRCRVAGSLLFPGVHLGDEVILENCIIGPMAKIGSKCKLSNCYIEGHYVVEPKNNFKGETLANVYLDEDEEDELIYDDSVIAGESEIAEETDSDDRSDEDSDDSEYTDEYEYEDDGLFER
notes: eIF2B gamma subunit (GCD1), S. cerevisiae; Bait of all eIF2B complex purifications; also called GCD1-FLAG2-His6; source: S. cerevisiae strains overexpressing eIF2B subunits, purified (anti-FLAG resin, FLAG peptide elution); not shown: FLAG2, C-terminal, kept

Experiments:
[1] = target: yeast four subunit complex lacking the α-subunit, eIF2Bβδγε (octamer) (S. cerevisiae) (UniProt P32502); assay: native MS; FLAG-purified four-subunit eIF2Bβδγε in ammonium acetate, without and with 10% acetonitrile; octamer = two copies of each of four subunits
[2] = target: T1, eIF2Bγ in the eIF2Bγε core complex (γ2ε2) (Saccharomyces cerevisiae, UniProt P09032); assay: photo-cross-linking and native nano-electrospray MS; assay type: binding; details: 10 mM 6-Thio-GTP; UV 365 nm 5 min on ice; 500 mM ammonium acetate; covalent (photo-cross-link); adduct on γ-subunit
T1 construct: gene GCD1; γε core co-overexpressed in yeast, γ-subunit C-terminally FLAG-tagged (GCD1-FLAG2-His6), anti-FLAG purified; GTP adduct seen on dissociated γ; with Translation initiation factor eIF2B subunit epsilon
T1 sequence (P09032 1-578): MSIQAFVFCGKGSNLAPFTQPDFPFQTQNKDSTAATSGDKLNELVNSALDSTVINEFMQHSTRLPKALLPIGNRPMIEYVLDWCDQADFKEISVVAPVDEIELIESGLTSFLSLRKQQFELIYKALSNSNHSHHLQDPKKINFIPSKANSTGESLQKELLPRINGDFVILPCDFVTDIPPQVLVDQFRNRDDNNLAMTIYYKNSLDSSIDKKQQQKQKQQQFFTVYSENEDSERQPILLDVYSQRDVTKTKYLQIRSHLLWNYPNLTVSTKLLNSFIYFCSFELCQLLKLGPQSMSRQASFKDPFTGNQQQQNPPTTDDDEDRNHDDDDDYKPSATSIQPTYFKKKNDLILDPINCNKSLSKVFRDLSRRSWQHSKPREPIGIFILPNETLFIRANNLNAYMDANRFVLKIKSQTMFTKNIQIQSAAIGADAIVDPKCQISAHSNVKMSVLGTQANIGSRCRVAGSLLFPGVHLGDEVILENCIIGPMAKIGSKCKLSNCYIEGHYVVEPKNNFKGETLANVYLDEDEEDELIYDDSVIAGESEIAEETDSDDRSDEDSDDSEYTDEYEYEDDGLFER
T1 sequence (P32501 1-712 partner): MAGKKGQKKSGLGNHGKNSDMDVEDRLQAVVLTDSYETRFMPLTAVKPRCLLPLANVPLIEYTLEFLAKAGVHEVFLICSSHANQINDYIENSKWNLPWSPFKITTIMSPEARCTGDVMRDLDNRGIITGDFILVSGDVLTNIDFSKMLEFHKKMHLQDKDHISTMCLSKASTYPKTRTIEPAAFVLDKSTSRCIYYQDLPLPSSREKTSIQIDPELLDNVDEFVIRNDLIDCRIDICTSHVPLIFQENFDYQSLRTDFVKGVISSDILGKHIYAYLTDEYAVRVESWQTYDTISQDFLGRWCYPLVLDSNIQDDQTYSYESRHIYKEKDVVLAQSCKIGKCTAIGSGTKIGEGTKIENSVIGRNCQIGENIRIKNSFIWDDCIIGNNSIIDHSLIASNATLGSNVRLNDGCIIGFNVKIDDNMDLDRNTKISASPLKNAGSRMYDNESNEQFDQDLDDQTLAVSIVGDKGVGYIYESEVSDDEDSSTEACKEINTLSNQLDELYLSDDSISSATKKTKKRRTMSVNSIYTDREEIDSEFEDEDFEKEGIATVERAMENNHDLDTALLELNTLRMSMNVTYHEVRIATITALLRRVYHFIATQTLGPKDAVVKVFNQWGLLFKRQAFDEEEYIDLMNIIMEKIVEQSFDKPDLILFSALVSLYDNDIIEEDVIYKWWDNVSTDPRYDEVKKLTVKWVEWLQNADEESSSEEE

[3] = target: T2, eIF2Bδ (δ-subunit of yeast eIF2B) (S. cerevisiae, UniProt P12754 1-651); assay: cross-linking; BS3-d0/d4 (1:1) added to purified complexes (eIF2:eIF2B, four-subunit eIF2B, eIF2Bγε core), 30 min at 26 °C, trypsin digest, nanoLC-MS/MS, MassMatrix search; the text does not tell which cross-link came from which complex; details: both partners purified
T2 construct: eIF2B delta subunit (GCD2), S. cerevisiae; Subunit of the purified eIF2B complexes, written alone for the subunit pairs; also called eIF2B δ-subunit; δ/Gcd2
T2 sequence (looked up): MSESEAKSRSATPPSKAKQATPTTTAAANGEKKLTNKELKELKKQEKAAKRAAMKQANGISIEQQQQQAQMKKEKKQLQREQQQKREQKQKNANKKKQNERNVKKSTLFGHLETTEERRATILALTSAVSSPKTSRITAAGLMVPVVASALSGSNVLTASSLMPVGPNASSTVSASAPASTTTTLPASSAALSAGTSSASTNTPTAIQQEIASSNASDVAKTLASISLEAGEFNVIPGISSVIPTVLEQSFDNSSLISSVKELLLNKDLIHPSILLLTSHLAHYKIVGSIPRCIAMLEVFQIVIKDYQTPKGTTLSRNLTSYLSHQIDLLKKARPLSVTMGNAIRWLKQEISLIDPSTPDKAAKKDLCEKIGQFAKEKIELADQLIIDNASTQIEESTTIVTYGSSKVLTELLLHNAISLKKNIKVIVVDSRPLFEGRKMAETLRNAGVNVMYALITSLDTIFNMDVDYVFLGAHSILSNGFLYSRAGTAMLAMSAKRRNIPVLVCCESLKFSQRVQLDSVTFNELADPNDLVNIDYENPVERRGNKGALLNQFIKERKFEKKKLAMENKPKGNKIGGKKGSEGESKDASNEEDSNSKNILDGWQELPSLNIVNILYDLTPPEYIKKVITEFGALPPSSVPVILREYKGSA

[4] = target: T3, eIF2Bα (α-subunit of yeast eIF2B) (S. cerevisiae, UniProt P14741 1-305); assay: as above; details: both partners purified
T3 construct: eIF2B alpha subunit (GCN3), S. cerevisiae; Subunit of the purified eIF2B complex, written alone for the subunit pairs; also called eIF2B α-subunit; GCN3
T3 sequence (looked up): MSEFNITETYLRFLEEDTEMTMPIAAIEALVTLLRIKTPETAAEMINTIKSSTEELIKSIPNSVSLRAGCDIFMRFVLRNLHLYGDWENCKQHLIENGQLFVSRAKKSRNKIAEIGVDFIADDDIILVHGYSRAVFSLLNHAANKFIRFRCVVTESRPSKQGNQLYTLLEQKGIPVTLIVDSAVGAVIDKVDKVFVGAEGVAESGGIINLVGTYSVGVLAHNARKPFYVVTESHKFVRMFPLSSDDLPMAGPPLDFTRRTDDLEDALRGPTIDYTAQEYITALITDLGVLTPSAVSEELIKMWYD

[5] = target: B2; assay: as above; details: both partners purified
[6] = target: eIF2α phosphorylated at Ser51 (subunit of phosphorylated eIF2) (S. cerevisiae) (UniProt P20459); assay: label-free quantitative proteomics (iBAQ) of the purified complex; eIF2-eIF2B complex purified after phosphorylation of eIF2, trypsin digest, nanoLC-MS/MS, iBAQ intensities compared; eIF2B subunits relative to FLAG-tagged γ (set to 1), eIF2 subunits relative to α
[7] = target: T2, eIF2Bδ (δ-subunit of yeast eIF2B); assay: native MS; FLAG-purified four-subunit eIF2Bβδγε in ammonium acetate, without and with 10% acetonitrile; octamer = two copies of each of four subunits; details: both partners purified
[8] = target: T4, eIF2Bε (ε-subunit of yeast eIF2B, untagged) (S. cerevisiae, UniProt P32501 1-712); assay: as above; details: both partners purified
T4 construct: eIF2B epsilon subunit (GCD6), S. cerevisiae; Subunit of the purified eIF2B complexes, written alone for the subunit pairs; also called eIF2B ε-subunit; ε/GCD6
T4 sequence (looked up): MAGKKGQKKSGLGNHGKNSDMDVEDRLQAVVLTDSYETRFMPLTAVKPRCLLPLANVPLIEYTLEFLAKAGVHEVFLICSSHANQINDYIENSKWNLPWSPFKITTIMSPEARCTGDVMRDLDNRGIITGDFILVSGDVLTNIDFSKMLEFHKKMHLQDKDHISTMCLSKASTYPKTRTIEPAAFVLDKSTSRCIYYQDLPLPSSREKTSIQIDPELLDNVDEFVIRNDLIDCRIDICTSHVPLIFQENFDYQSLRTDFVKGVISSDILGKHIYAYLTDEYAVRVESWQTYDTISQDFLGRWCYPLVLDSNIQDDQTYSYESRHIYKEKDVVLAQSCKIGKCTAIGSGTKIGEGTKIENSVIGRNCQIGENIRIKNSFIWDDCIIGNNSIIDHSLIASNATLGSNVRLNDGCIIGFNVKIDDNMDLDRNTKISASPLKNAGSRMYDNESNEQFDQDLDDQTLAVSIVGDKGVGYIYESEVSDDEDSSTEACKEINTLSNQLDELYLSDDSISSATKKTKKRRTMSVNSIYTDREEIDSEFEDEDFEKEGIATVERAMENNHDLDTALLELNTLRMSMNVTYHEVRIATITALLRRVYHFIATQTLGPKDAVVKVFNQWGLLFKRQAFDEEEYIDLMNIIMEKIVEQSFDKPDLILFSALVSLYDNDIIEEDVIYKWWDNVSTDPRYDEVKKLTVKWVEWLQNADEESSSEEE

[9] = target: the molecule itself; assay: as above

“yeast four subunit complex lacking the α-subunit, eIF2Bβδγε (octamer), P32502 1-381; P12754 1-651; P09032 1-578; P32501 1-712” was tested, and the stoichiometry N [1] was 8.

For `Nc1nc(=S)c2ncn([C@@H]3O[C@H](COP(=O)(O)OP(=O)(O)OP(=O)(O)O)[C@@H](O)[C@H]3O)c2[nH]1` [6-Thio-GTP], the “photo-cross-linking and native nano-electrospray MS” value [2] was “After incubation with 6-Thio-GTP and ultraviolet irradiation, the intensity of the GTP-bound population”.

B1: eIF2β (β-subunit of yeast eIF2) (natural protein, S. cerevisiae, UniProt P09064 1-285, looked up)
chain: MSSDLAAELGFDPALKKKKKTKKVIPDDFDAAVNGKENGSGDDLFAGLKKKKKKSKSVSADAEAEKEPTDDIAEALGELSLKKKKKKTKDSSVDAFEKELAKAGLDNVDAESKEGTPSANSSIQQEVGLPYSELLSRFFNILRTNNPELAGDRSGPKFRIPPPVCLRDGKKTIFSNIQDIAEKLHRSPEHLIQYLFAELGTSGSVDGQKRLVIKGKFQSKQMENVLRRYILEYVTCKTCKSINTELKREQSNRLFFMVCKSCGSTRSVSSIKTGFQATVGKRRRM
notes: eIF2 beta subunit (SUI3), S. cerevisiae; Subunit of the purified eIF2 complex, written alone for the subunit pairs; also called eIF2 β-subunit; SUI3
B1: binds [3]; binds [4]; binds [5]. It also gave a stoichiometry N [6] of 1.08.

B2: binds [7]; binds [8].

B3: eIF2Bγε core complex (complex, S. cerevisiae)
chain 1: MSIQAFVFCGKGSNLAPFTQPDFPFQTQNKDSTAATSGDKLNELVNSALDSTVINEFMQHSTRLPKALLPIGNRPMIEYVLDWCDQADFKEISVVAPVDEIELIESGLTSFLSLRKQQFELIYKALSNSNHSHHLQDPKKINFIPSKANSTGESLQKELLPRINGDFVILPCDFVTDIPPQVLVDQFRNRDDNNLAMTIYYKNSLDSSIDKKQQQKQKQQQFFTVYSENEDSERQPILLDVYSQRDVTKTKYLQIRSHLLWNYPNLTVSTKLLNSFIYFCSFELCQLLKLGPQSMSRQASFKDPFTGNQQQQNPPTTDDDEDRNHDDDDDYKPSATSIQPTYFKKKNDLILDPINCNKSLSKVFRDLSRRSWQHSKPREPIGIFILPNETLFIRANNLNAYMDANRFVLKIKSQTMFTKNIQIQSAAIGADAIVDPKCQISAHSNVKMSVLGTQANIGSRCRVAGSLLFPGVHLGDEVILENCIIGPMAKIGSKCKLSNCYIEGHYVVEPKNNFKGETLANVYLDEDEEDELIYDDSVIAGESEIAEETDSDDRSDEDSDDSEYTDEYEYEDDGLFER
chain 2: MAGKKGQKKSGLGNHGKNSDMDVEDRLQAVVLTDSYETRFMPLTAVKPRCLLPLANVPLIEYTLEFLAKAGVHEVFLICSSHANQINDYIENSKWNLPWSPFKITTIMSPEARCTGDVMRDLDNRGIITGDFILVSGDVLTNIDFSKMLEFHKKMHLQDKDHISTMCLSKASTYPKTRTIEPAAFVLDKSTSRCIYYQDLPLPSSREKTSIQIDPELLDNVDEFVIRNDLIDCRIDICTSHVPLIFQENFDYQSLRTDFVKGVISSDILGKHIYAYLTDEYAVRVESWQTYDTISQDFLGRWCYPLVLDSNIQDDQTYSYESRHIYKEKDVVLAQSCKIGKCTAIGSGTKIGEGTKIENSVIGRNCQIGENIRIKNSFIWDDCIIGNNSIIDHSLIASNATLGSNVRLNDGCIIGFNVKIDDNMDLDRNTKISASPLKNAGSRMYDNESNEQFDQDLDDQTLAVSIVGDKGVGYIYESEVSDDEDSSTEACKEINTLSNQLDELYLSDDSISSATKKTKKRRTMSVNSIYTDREEIDSEFEDEDFEKEGIATVERAMENNHDLDTALLELNTLRMSMNVTYHEVRIATITALLRRVYHFIATQTLGPKDAVVKVFNQWGLLFKRQAFDEEEYIDLMNIIMEKIVEQSFDKPDLILFSALVSLYDNDIIEEDVIYKWWDNVSTDPRYDEVKKLTVKWVEWLQNADEESSSEEE
notes: eIF2B gamma subunit (GCD1), S. cerevisiae; eIF2B epsilon subunit (GCD6), S. cerevisiae; Seen as γε dimer (predominant) and γ2ε2 tetramer; the self row stands for two γε dimers joined in the tetramer; also called γε dimer; γ2ε2 tetramer; source: S. cerevisiae, purified by the FLAG-tagged γ-subunit (anti-FLAG resin); also formed from eIF2Bβδγε on adding 10% acetonitrile; not shown: FLAG2, …
For B3, the “stoichiometry N” value [9] was 4.
